Bridges are numbered along the chain shown (N, C = ends). Where no end group is shown, it is not given here. [ ]: non-standard residue; d: D form. Aib = CC(C)(N)C(=O)O
How the values were obtained:
Assay in all cases: cell-based or functional assay
[1] = target: human GLP-1 receptor (human, UniProt P43220 24-463)
[2] = target: human GCG receptor (human, UniProt P47871 26-477)
[3] = target: T1, human GIP receptor (human, UniProt P48546 22-466)
T1 sequence (looked up): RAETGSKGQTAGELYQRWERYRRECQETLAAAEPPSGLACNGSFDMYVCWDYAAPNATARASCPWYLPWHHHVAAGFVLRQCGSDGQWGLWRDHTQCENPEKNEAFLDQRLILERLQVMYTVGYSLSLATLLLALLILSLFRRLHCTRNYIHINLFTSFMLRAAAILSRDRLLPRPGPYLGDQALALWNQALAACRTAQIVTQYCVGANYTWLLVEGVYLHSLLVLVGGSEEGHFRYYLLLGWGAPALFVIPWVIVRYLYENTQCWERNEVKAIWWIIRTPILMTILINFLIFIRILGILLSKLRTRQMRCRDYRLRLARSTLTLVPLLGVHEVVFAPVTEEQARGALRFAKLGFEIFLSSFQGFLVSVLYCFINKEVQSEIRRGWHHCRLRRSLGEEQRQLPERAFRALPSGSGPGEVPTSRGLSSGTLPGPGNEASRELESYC

Sequence of human GCG receptor (P47871 26-477): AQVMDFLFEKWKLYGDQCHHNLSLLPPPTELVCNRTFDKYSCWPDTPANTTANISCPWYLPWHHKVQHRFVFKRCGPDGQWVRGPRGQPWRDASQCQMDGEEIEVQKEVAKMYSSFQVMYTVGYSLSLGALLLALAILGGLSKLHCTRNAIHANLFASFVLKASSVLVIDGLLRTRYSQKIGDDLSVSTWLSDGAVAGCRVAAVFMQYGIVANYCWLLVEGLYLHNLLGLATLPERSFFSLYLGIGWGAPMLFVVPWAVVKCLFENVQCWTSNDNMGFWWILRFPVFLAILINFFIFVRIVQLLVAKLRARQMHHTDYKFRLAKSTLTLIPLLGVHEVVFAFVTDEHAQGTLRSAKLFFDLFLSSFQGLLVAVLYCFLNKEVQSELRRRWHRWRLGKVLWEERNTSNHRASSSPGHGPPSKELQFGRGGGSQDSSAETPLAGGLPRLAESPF

H[Aib]QGTFTSDYSIAMDEIHQKDFVNWLLAQKC (bridge 16-20) [Triple agonist of SEQ ID NO: 33]
In vitro activity compared with native peptide (%) vs. GLP-1 [1]: 24.5%
In vitro activity compared with native peptide (%) vs. Glucagon [2]: < 0.1%
In vitro activity compared with native peptide (%) vs. GIP [3]: 10.4%

Reference: patent US20240024426A1, “HYPOTENSIVE PHARMACEUTICAL COMPOSITION COMPRISING TRIPLE ACTIVATOR HAVING ACTIVITY FOR ALL OF GLUCAGON, GLP-1, AND GIP RECEPTORS” (HANMI PHARM. CO., LTD., priority 2020, published 2024)
